In patent US20240337665A1 (INDI MOLECULAR, published 2024):
Bridge positions count the residues as written; N and C are the ends. Square brackets hold non-standard residues; d marks the D form. Ends that are not written are not given here. I, II: the chains in the order shown. Lys(N3) = [N-]=[N+]=NCCCC[C@H](N)C(=O)O; Pra = C#CC[C@H](N)C(=O)O

Assays:
[1] = biological target: T1, His6-PEG3-FFQKPESSPVSPGPG (not fully specified (N-terminus); printed as His6-PEG3-FFQKPESSPVSPGPG); test: point ELISA; macrocycle on NeutrAvidin plate, 2 µM His-tagged epitope
T1 construct: Synthetic; residues C-terminal to C48S scrambled
T1 peptide: FFQKPESSPVSPGPG

[2] = biological target: T2, His6-PEG3-FFQKPESSPPVPGGS (human, not fully specified (N-terminus); printed as His6-PEG3-FFQKPESSPPVPGGS); test: as above
T2 construct: Not clear whether the listing entry holds the His6
T2 peptide: FFQKPESSPPVPGGS

[3] = biological target: T3, His6-PEG3-SQFEKFPSPPVPGGS (not fully specified (N-terminus); printed as His6-PEG3-SQFEKFPSPPVPGGS); test: point ELISA; macrocycle on NeutrAvidin plate, His-tagged epitope, anti-His-AP detection
T3 construct: Synthetic; residues N-terminal to C48S scrambled
T3 peptide: SQFEKFPSPPVPGGS

[4] = biological target: T4, Full-length His-tagged IL-17F protein (ab167911, Abcam) (human, UniProt Q96PD4 31-163); test: sandwich ELISA; biotinylated macrocycle on NeutrAvidin plate, His-tagged IL-17F titrated, anti-His-AP detection
T4 construct: Bought protein, called full-length and His-tagged; also called human IL-17F protein; recombinant human IL-17F protein; not shown: His tag
T4 sequence: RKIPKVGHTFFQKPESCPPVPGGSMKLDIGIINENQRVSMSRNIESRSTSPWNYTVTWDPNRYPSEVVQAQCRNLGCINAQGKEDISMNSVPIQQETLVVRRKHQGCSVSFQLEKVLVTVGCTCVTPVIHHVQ

[5] = biological target: T4, Full-length His-tagged IL-17F protein …; test: point ELISA; surface-immobilized macrocycle with IL-17F, IL-17A or no protein
[6] = biological target: T4, Full-length His-tagged IL-17F protein …; test: point ELISA; macrocycle on NeutrAvidin plate, His-tagged IL-17F against His-tagged IL-17A
[7] = biological target: T4, Full-length His-tagged IL-17F protein …; test: fluorescence polarization in solution; IL-17F titrated against 5-FITC-tagged macrocycle; 5-FITC-tagged LF1, fluorescence polarization in solution
[8] = biological target: T4, Full-length His-tagged IL-17F protein …; test: sandwich ELISA; biotinylated macrocycle on NeutrAvidin plate, His-tagged IL-17F titrated
[9] = biological target: T4, Full-length His-tagged IL-17F protein …; test: point ELISA; macrocycle on NeutrAvidin plate, His-tagged IL-17F against His-tagged IL-17A at 100 nM
[10] = biological target: T4, Full-length His-tagged IL-17F protein …; test: fluorescence polarization in solution; IL-17F titrated against 5-FITC-tagged macrocycle; 5-FITC-tagged LF2, fluorescence polarization in solution
[11] = biological target: T4, Full-length His-tagged IL-17F protein …; test: not stated in the sentence (same number as the ELISA EC50 of paragraph 504); monoligand Cy(RSYNKX1X2), not the biligand
[12] = biological target: T4, Full-length His-tagged IL-17F protein …; test: binding to His-tagged IL-17F human recombinant protein (ELISA format); PEG3-linked biligand; binding to His-tagged IL-17F, not in solution
[13] = biological target: T4, Full-length His-tagged IL-17F protein …; test: point ELISA; recombinant human IL-17F against IL-17A
[14] = biological target: T4, Full-length His-tagged IL-17F protein …; test: fluorescence polarization in solution; in solution by fluorescence polarization
[15] = biological target: T4, Full-length His-tagged IL-17F protein …; test: binding to His-tagged IL-17F human recombinant protein (ELISA format); reference: the individual PCC macrocycles Cy(RRATSX1X2) and Cy(RSYNKX1X2)
[16] = biological target: T4, Full-length His-tagged IL-17F protein …; test: binding to His-tagged IL-17F human recombinant protein
[17] = biological target: T5, Plasmodium falciparum Histidine Rich Protein-2 (Plasmodium falciparum); test: assay not described; monoligand Cy(YKYYR)
T5 construct: the construct used in the assay is not described; also called Pf.HRP-2
T5 chain: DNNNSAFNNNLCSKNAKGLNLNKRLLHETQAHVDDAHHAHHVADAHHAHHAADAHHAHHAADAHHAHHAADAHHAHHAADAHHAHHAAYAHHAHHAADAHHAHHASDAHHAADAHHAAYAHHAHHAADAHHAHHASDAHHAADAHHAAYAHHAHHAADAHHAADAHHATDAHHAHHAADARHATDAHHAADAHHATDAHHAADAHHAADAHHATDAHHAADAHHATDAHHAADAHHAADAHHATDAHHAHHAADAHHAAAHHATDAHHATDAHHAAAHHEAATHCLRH

[18] = biological target: T5, Plasmodium falciparum Histidine Rich …; test: assay not described; two Cy(YKYYR) PCCs joined by about a 1.5 nm linker
[19] = biological target: T5, Plasmodium falciparum Histidine Rich …; test: assay not described; monoligand cy(GWNVDL)
[20] = biological target: T5, Plasmodium falciparum Histidine Rich …; test: assay not described
[21] = biological target: T5, Plasmodium falciparum Histidine Rich …; test: assay not described; biligand cy(YKYYR)-linker-cy(GWNVDL)

B1: Cy(RRATSX1X2)-PEG3-biotin (peptide)
peptide: RRATS[Lys(N3)][Pra]
modifications: triazole 6-7; not fully specified (C-terminus, bridges); printed as Cy(RRATSX1X2)-PEG3-biotin; also: no peptide bond X6-X7, Pra is the true N-terminus, Az4 the true C-terminus, PEG3-biotin label at C-terminus (on Az4)
notes: Biotin-PEG3 form used on NeutrAvidin plates; also called LF1
binding result [1]: binds | binding result [2]: binds | binding result [3]: no binding (tested: 2 µM epitope) | EC50 [4]: 66 nM | selectivity for IL-17F over IL-17A [5]: 10 ratio IL-17F:IL-17A | selectivity for IL-17F over IL-17A [6]: 2 ratio IL-17F:IL-17A | Kd [7]: 50 nM

B2: Cy(RRAQSX1X2)-PEG3-biotin (peptide)
peptide: RRAQS[Lys(N3)][Pra]
modifications: triazole 6-7; not fully specified (C-terminus, bridges); printed as Cy(RRAQSX1X2)-PEG3-biotin; also: no peptide bond X6-X7, Pra is the true N-terminus, Az4 the true C-terminus, PEG3-biotin label at C-terminus (on Az4)
binding result [1]: binds | binding result [2]: binds | binding result [3]: no binding (tested: 2 µM epitope) | EC50 [4]: 52 nM | selectivity for IL-17F over IL-17A [6]: 2 ratio IL-17F:IL-17A

B3: Biotin-PEG3-Cy(KKGWPX1X2) (peptide)
peptide: KKGWP[Lys(N3)][Pra]
modifications: triazole 6-7; not fully specified (N-terminus, bridges); printed as Biotin-PEG3-Cy(KKGWPX1X2); also: no peptide bond X6-X7, Pra is the true N-terminus, Az4 the true C-terminus, Biotin-PEG3 label at N-terminus (on Pra)
EC50 [8]: 24 nM | selectivity for IL-17F over IL-17A [9]: 4 ratio IL-17F:IL-17A

B4: Biotin-PEG3-Cy(RSYNKX1X2) (peptide)
peptide: RSYNK[Lys(N3)][Pra]
modifications: triazole 6-7; not fully specified (N-terminus, bridges); printed as Biotin-PEG3-Cy(RSYNKX1X2); also: no peptide bond X6-X7, Pra is the true N-terminus, Az4 the true C-terminus, Biotin-PEG3 label at N-terminus (on Pra)
notes: also called LF2
EC50 [8]: 15 nM | Kd [10]: 28 nM | Kd [11]: 15 nM | selectivity for IL-17F over IL-17A [9]: 4 ratio IL-17F:IL-17A

B5: Biotin-PEG3-Cy(RSYNKX1X2)-PEG3-Cy(RRATSX1X2) (designed binder)
peptide 1: RSYNK[Lys(N3)][Pra]
peptide 2: RRATS[Lys(N3)][Pra]
modifications: triazole I:6-I:7, II:6-II:7; not fully specified (N-terminus, C-terminus); printed as Biotin-PEG3-Cy(RSYNKX1X2)-PEG3-Cy(RRATSX1X2); also: chain 1 joined to chain 2 through one PEG3 linker, backbone orders Pra-RSYNK-Az4 and Pra-RRATS-Az4, no bonds X6-X7
notes: One covalent molecule: two macrocyclic peptides joined by a single PEGylated amino acid (not a peptide linker), written here as two peptide segments; also called Bi-LF; anti-IL-17F biligand with PEG3 linker
Kd [12]: 0.246 nM | selectivity for IL-17F over IL-17A [13]: 4 ratio IL-17F:IL-17A | Kd [14]: 0.252 nM | fold improvement in affinity relative to the individual PCC macrocyclic ligands [15]: > 100 fold | fold better binder than the biligands with other linkers [16]: ~10 fold | times stronger than the other biligands [16]: ≥ 16 fold

YKYYR (also: cyclic, ring type not given here, also called cyclic YKYYR) [Cy(YKYYR)]
EC50 [17]: 220 nM

B6: linked biligand of two Cy(YKYYR) PCCs (designed binder)
peptide: YKYYR
modifications: not fully specified (bridges)
notes: also called The resultant linked biligand
EC50 [18]: 20.8 nM

GWNVDL (not fully specified (bridges); also: cyclic, ring closure not given here, also called cy(GWNVDL)) [cyclic PCC with variable sequence GWNVDL]
EC50 [19]: 50 nM

B7: cy(YKYYR)-linker-cy(GWNVDL) (designed binder)
peptide 1: YKYYR
peptide 2: GWNVDL
modifications: not fully specified (bridges); printed as cy(YKYYR)-linker-cy(GWNVDL)
notes: also called The resultant biligand
fold improvement over the better of the two ligand components [20]: 100 fold | EC50 [21]: 0.54 nM
